Laboratory results taken from the DeepSol protein solubility set.

Experiment: soluble on expression in E. coli; label from the status in PepcDB or PDB records

| Sequence | soluble on expression in E. coli |
| --- | --- |
| MGSDKIHHHHHHMPEILINKPVEDELVESYLLYSMSVIVGRAIPDVRDGLKPVQRRILYGMYELGLKHNSPTKKSARIVGEVMGKYHPHGDAPVYDALVRMAQPFTMRYPLIEGQGNFGSIDRDPPAAMRYTEARLTRLAEEMLEDIEKNTVNMIDNFDGTLKEPEVLPSKVPNLIINGASGIAVGMATNIPPHNLSETVDALIYLIDHPEATVEELMQFIKGPDFPTGAVVVNASELKKVYEEGRGRIIVRGKVHVEDGKRVKRIVITEIPYGVSKAGLIEQIAKIAKDDESLPIRNIRDESDKRGMRIVIEIPKDANEEVIINNLYKRTALQDYFNVQMLVIDKHKRPRLMNLKGLMEAFLEHRFEVIRRRARYEYEQYTRRAHVVEGLLKAARAIGVVVDIVRNSKDVESARQSLMETLEITEEQAKAILDMRLSRLTSLEIENLQNEYSDLVRKISEVKEILEKDEKVKEIMKKEFLYLKQQYGDPRRTEVTDQSIEYNEEELIVEEDVVITLSHKGYLKSTPLNSYRSQKRGGKGITVSKLSEDDEVEFVVVAKNTSSTLFITNLGRAYVLKNYQLETTGRNTRGRHITAFLNLEDTEKIVALASLNGEGRDLVIATKSGKIKRTALKEFENATSNRGVRAIKIEPGDEIVSARVVNSEKETLIVATKMGMAIRFPVSDVRRMGRNAAGVQAIKLQPGDEVVSVDVIPPGEEGEILTVTEKGFGKRTPVQLYRIQRRGGTGLRNISDVNKTGYVVAVRYVRGDEEIVVVTRNGMMIRFPVSEIGVIGRVTKGVKLIELGDDTISKVAVVKD | not soluble |
| MPLSPYLSFAGNCADAIAYYQQTLGAELLYKLSFGEMPPSAADNEEGCPSGMRFPDTAIAHANMRIAGSDIMMSDASASGRAHYSGFTLVLDTQDVAEGKRWFDNLAAQGQIEMDWQETFWAQGFGKVSDRFGVPWMINVVKHQPAT | not soluble |
| MDSLKEAEIREVFREFDKNGDGRITRQELEVALLQLGEKASNSKIETMIEQADLDGNGCIDIDEFLNVLRRQICDPKEERELRDVFNVFDKNGDGVISIDDLIFVMCQLGEKLTETEAKEMIKQGDLDHDGMIDFQEFVNIIKGQ | soluble |
| FFSNAEVAERLAYPQLIEALRIGLAKPCSAPLRNCHALPAQASLLQMPVWQAGAGIGVKLVTVFPGNGARGLPAVAAVFALFDGEDGRPLALLEASELTARRTACSSALAADYLARDDARRLLVVGCGTLAAHMVRAHACVRDYRHIDIWGRDPAKAAALAARLREEGYPARAADGLRAAVEAADCVSCVTTSREALVRGAWLKPGVHLDLVGAFLPSMRETDVLAVARARVVVDTRAGALEEAGDLLQAIAEGAIGREAISTELRDLLSGAGRRGDPGEITLFKSVGYALEDLVAARRVV | not soluble |
| MAASPLVVQKTEEEWRAVLSPEQFRILRQKGTEKPGTGEYDKFFEEGIFDCVGCKTPLYKSTTKFDSGCGWPAFFEGLPGAINRTPDPDGRRTEITCAACDGHLGHVFKGEGYGNPTDERHCVNSVSISFNPAKSSSII | soluble |
| MSLADTIIKNAKIVDVYNARIIEGTLAIADSRFLGIDAAYTADNVINAHGQYVVPGLIDPHIHIESANVSPAVFGSLVTPHGTTTILADPHEIVNVAGMRGLEYMVASAKNTALDIKYTMPSCVPAANPTLETSGAVITADEIKQSYDQGLTYGLAEFMNYPGVVNADDGVLDELLVSLNARKMIDGHSPALHGQGLNAYAAAGVHNDHECTQVDEMLDRISRGMYVYLRYGTVSKNMPTLLKGVTPQNARFCCLCGDDLQSVTLRETGHLDESIRVAIQNGIDPLTAIQMATINTAQCTGLSDRGGIAPGLKADFLLVDDLEHFNVNQTFIDGQKIAANGAYLLPTDDSVAGFDDLLETVHLDNFSADQLKLNLTSDKAHVIGLQSISRTQNLVLPVAHDAEGDFHYKPSEDIVKVAVVERHHLTGNVGVGLLSGFGLQNGAIATSIGHDSHNLVVVGTNDADMVVAIDALKACQGGGVAVQNGQVIATLPFVIGGLMSTEPIDSLIAHQKAFNTICHEQLNVTAQFDPIMKLGAMPLDVIPNLRITDKGLVDVTKFEIIDINAEGHHHHHH | soluble |
| MSLTALSSVDFCLPEHITPEIFLRDYWQKKPLVIRNGLPEIVGQFEPQDIIELAQNEDVTARLVKTFSDDDWKVFFSPLSEKDFQKLPEKWSVLVQNLEQWSPELGQLWNKFGFIPQWQRDDIMVSYAPKGGSVGKHYDEYDVFLVQGYGHRRWQVGKWCDASTEFKPNQSIRIFDDMGELVIDEVMNPGDILYIPARMAHYGVAEDDCLTFSFGLRYPNLSNLIDGISKGFCHQDPDLNLSEFDLPLRLSQSEQRTGKLADENIQAMKQLLLDKLAHSEAFDTLFKQAVASAVSSRRYELLVSDEMCDPDEVRSILEEDGAFLSQDNNCKLLYTENPLRIYANGEWLDELNIIESEVLKRLSDGESLDWAFLSDLANKTEDPETSMDLLLDSICNWVDDGWALIEEGGSHHHHHH | soluble |
| MGHHHHHHSHMEGTQETYTVAHEENVRFVSEAWQQVQQQLDGGPAGEGGPRPVQYVERTPNPRLQNFVPIDLDEWWGAAVPGENHQLFLVAAGRGRCYTADLSPGEKHGALPTHCAWLGAGHT | not soluble |
| EVDPFVELHVRAMGLAEVYGKMNGYMPMNYEYNVGRVETGIAKALGIKPSRDYEGIVAESQKLAAKAPPRPPVLCPGCPHSASFYAIRRVVDELGDAALPS | not soluble |
| MAPTQAQKVLEAFEDFLKCLDLESYQEKYRPIKTVEQDLPRELNPLPDLYDHYWKPNGNTLHFPDFETFFDQWWEKRLRPLNEFIRKYFWGCSYEFVRLGLEARLYRTAVSIWTQFHFCYRWNASCQLRLTATWELDAQGIDAQIQAEDRLIGIQIKKETYRSEAREGNRFLRRREHSALLEVPYTLQSPEELERKAQRARTREEAYRLWVKIAHHLERLPNGFVIFRESYVKDLENFLKQNATTLSGLIPWDKVAREALTGP | soluble |
| MSKSQYKMSKITYASGKMRPPSLIQKLNVYKPFLLIVDINSTNFALVGNGEILGHLFYRQNSPSYTQIKSRLVIYPKCCKLYSEDIAIPLHDWKIENLGAIKLLTKHNSLKTGTLHQIDKTMMLVYMAAFGEDSGVRSKISKPHGKTATWRNQHDLFMQ | not soluble |
| MSHDSSGEYMVSQVLKCVKFKDLVRKALNAEAKFSPASVEYDKRRHSKYAYLVHWRGYDWKERTWEPEENLENCEELQKFKERNNMSLDHLTFEHHYEHSTWRRISLASEKCVTNRYLKTDDEIEEKRARKKAKLEEQNRKEQAKNPHASAETEPAVKKKKIEGVGSRIPKISDREGAGTSGQSSSNVSTPGITPLDNKTPRMQKKSNEIGQASTPECAIATLSIGTPQPSIIDSTYDQSDIANGSTSPQPQPVFKRKMNGQDVSDYSVHQGGTFSDGSAIEGSTSRESEDMDCTQETKKALQKAIESAREECEEIEKTIKKYPLQVTSSRVVTGFSPALTLRKFRRCQSLEMLSDHFNNNAEMEIFGKNFENSVRLDADAKPVVIKIYPQEQELFLTKQRKMPSLEMEQLVYENLVKENANNIKIAMHNIRPDKNFAQLLECLSHAYSKDDNIRFETIFNEGFPPSDEYDCRRFQAIVFLIAYCKHRLWKADPKGMAIVEASDAVKEGEIREQQIICSDRHRKCAWLQVFLKLMPDRFKFLETSGQCYHGWEGDDGPFRDDVFFHCMKYGAECQKRLFLDFNKPIGIQEETVGDYSVDAMHLLAVQYGNIQRIPSYLSIGGLDINALATHLPTKRVMRLQHYLKVWIEAHKSETTATEDRKKYYRYLNDVIRLTSESLEIFLENEVTKMIFSRMGGRWKIRMDLTYPHILRCSPLSNKSNGGDGTHQVLSCLFYPEAIGYRDGLENSKGADTEKIDELKTSQKRYKKMIEEGKGRLVLALYRIDIEFRCNLAEKEQFSLPKFTLIESDDGFKIEKLTLLRQTEGLTCYEADIGMFEMTPFSSPGCRYFGISDKAHEKDLVVPGNAHIEMRAEVDQPISFVTQLFFIKKNV | not soluble |
| MSEKRVQPLARDAMAYVLAGGRGSRLKELTDRRAKPAVYFGGKARIIDFALSNALNSGIRRIGVATQYKAHSLIRHLQRGWDFFRPERNESFDILPASQRVSETQWYEGTADAVYQNIDIIEPYAPEYMVILAGDHIYKMDYEYMLQQHVDSGADVTIGCLEVPRMEATGFGVMHVNEKDEIIDFIEKPADPPGIPGNEGFALASMGIYVFHTKFLMEAVRRDAADPTSSRDFGKDIIPYIVEHGKAVAHRFADSCVRSDFEHEPYWRDVGTIDAYWQANIDLTDVVPDLDIYDKSWPIWTYAEITPPAKFVHDDEDRRGSAVSSVVSGDCIISGAALNRSLLFTGVRANSYSRLENAVVLPSVKIGRHAQLSNVVIDHGVVIPEGLIVGEDPELDAKRFRRTESGICLITQSMIDKLDL | soluble |
| GANETTKQESPVVDTDINAVTNYIVGMCQKFLQKGEKVTPSSKLEELRTREDRLWDCLDTVEFVLDVEEIFDVTVPDEVADNFQTLQEIADFVVSERAKAGKFMKDQ | soluble |
| MTADDSPSDRWGPRCTTRGPGSDPRFDVPVRGVDVGPETRCAHYHGPRDVIAIRFACCDVFYPCHRCHEETATHPPERWPHDQFNASAVLCGRCRTVLTIEQYLDADHTCPACGAAFNPNCARHHDRYFCVGLEHHHHHH | not soluble |
| MAKYSEQFKLTVVKAYLAGNIGFRKVSSQFSIDSSLLRRWVANYKSHGHTGHRKPGLRYSEAFKRSVLEHKREHGLSLRQTAAHFGIGDPGQIVIWEQQHYSNDLAPYVPKRRKSVAMPKKPYPTAPVIDDDTQKTRDQLMAELEYLRMENAYLKKLEELKEQQRRQKKKPLEHHHHHH | soluble |
| MAHHHHHHMAKLLPPPFHGYIRKMFFPLRNAASASRKCCLHTHVQQKNGMMKTTPLISKRSYFTSLYDTKTEKTKLMNEMDDLYDHILTSNWNDSVHLVLNVSIWEGILNSIEDKVKLYEQDEDIMKKKKIINEIFDVLFILEDLRDHVNELLEQSSRASGLAGTHILASFKIENMNEHIEFLKTKYDELLLKYPLYKYQIDMVLGKGLALLRQKYNFEWRHMHNFFF | not soluble |
| MAHHHHHHMGKLCWLQISIGGKPAKEKILLELFDDITPKTCANFRALCTGNEGKVTDETQIPMTYKGSTFHRIIAGFMIQGGDFTKHNGTGGVSIYGERFDDENFDVPCDKAGLLAMANAGPNTNGSQFFITVNPAQHLTGRHVVFGKVVRGMNTVRALEHTETGANDKPVKPCVIVDCGVTDTLPEPEPQVGGDTFPDYPEDCTPSLTDAELLDVGEEIRQIGNKLFKASDFENAIQKYEKAARFVKTINKTTANDVAVNEKLIACYNNTAACAIKLGQWSEARNAASRVLELDNSNAKALFRRGFASLSAGDSESAVADFTKAQKLDPDNTEIVTVLQQAKEAEKVRTAKLAAGLKKMFS | not soluble |
| MSDSPIGSSQQVEPEHRTPDLMDIDPLIANLKALHEETRSDDDDDGQPSTSAKRKDSRADGIVIHQKKYSDPGRFLWIWLLGVRVPALSIDGEPHLPIEILDDMLTKKDKKDQMSFQNLLRYKNVYIRMASPSQFRAVMEKSKECENLNITSLSLMSRSDIERIMGELRLESMLTLAEHDNWDISDRVHVVHVNFIDYCSEWLESDDLEEDVMQSGTHGYWYKNRRNMRCIECQHCEGKFTPTDFIMHHHYPIKPSGFVHTGCNSFQWIRLIEVFDKSNENLEAWNKFVLNSHRAGKREYDEAAPHQAPPKRPAMETPVPVAADNGWEADEEEEGEEIVDRDADIEKCKLRNKKKMENLHIADFLGPSGSKGLKPRNKFEAVIIEQLNKMDDAALEALFLKSPEEYNLWVKESDFTHKVVTQQQEWKAKMKDPNFKSRASANFDVSKGEFDNMRHFDNASKATRQEIQQLAEQFANLDRDAKLLTPMEFVLREHALLKNVSADAIRVLCNRPPLPPLPPPPPPPKPKPAPVQPISLGNINFVALAQQLIASGIKLPLPIVTPPVVSTPAPVITPIPAALPISPNSDFLKQQLSTAMSSPALLSLYPKLTAGAYEQLAQFIKTTTVKN | not soluble |
